Key:
[1] = biological target: biotinylated histone H3 peptide trimethylated at lysine 27, H3K27me3 (21-44) (UniProt P68431); experiment: histone peptide microspot array, 10 and 20 µM spotted H3K27me3
[2] = biological target: histone H3 trimethylated at lysine 27 (H3K27me3) in cellular chromatin at the Tk-luciferase reporter of HEK293 Gal4-EED/luc cells; experiment: cell-based or functional assay

Substance “Pc2TF, bivalent Polycomb-based transcription factor with the flexible linker (GGGGS)4 (pET28 construct; TXTL-expressed or purified from E. coli) (from UniProt Q9HC52 1-62; Q9HC52 1-62) (designed binder)” has a fold smaller Kd^app than PcTF [1] of 2 fold.
“Pc2TF with the flexible linker (GGGGS)4 (MV10 mammalian expression construct, expressed in HEK293 Gal4-EED/luc cells) (from UniProt Q9HC52 1-62; Q9HC52 1-62) (designed binder)” was tested, and the luciferase activity, Tk-luciferase reporter, HEK293 Gal4-EED/luc cells, 96 hours dox (fold against PcTF) [2] was 2.

— patent US20190248848A1
